B1: library; numbered along this chain (parent)
chain: MRKPRAAVGSGHRKQAASQEGRQKHAKNNSQAKPSACDGLARQPEEVVLQASVSSYHLFRDVAEVTAFRGSLLSWYDQEKRDLPWRRRAEDEMDLDRRAYAVWVSEVMLQQTQVATVINYYTGWMQKWPTLQDLASASLEEVNQLWAGLGYYSRGRRLQEGARKVVEELGGHMPRTAETLQQLLPGVGRYTAGAIASIAFGQATGVVDGNVARVLCRVRAIGADPSSTLVSQQLWGLAQQLVDPARPGDFNQAAMELGATVCTPQRPLCSQCPVESLCRARQRVEQEQLLASGSLSGSPDVEECAPNTGQCHLCLPPSEPWDQTLGVVNFPRKASRKPPREESSATCVLEQPGALGAQILLVQRPNSGLLAGLWEFPSVTWEPSEQLQRKALLQELQRWAGPLPATHLRHLGEVVHTFSHIKLTYQVYGLALEGQTPVTTVPPGARWLTQEEFHTAAVSTAMKKVFRVYQGQQPGTCMGSKRSQVSSPCSRKKPRMGQQVLDNFFRSHISTDAHSLNSAAQ

Variants of: B1
Experiment: 8OG:A repair function score (normalized; synonymous = 0, nonsense = -1) (normalized log-likelihood score); higher = more repair activity (WT-like)
Conditions: with 8OG:A DNA repair reporter (GFP) in HEK-293 MUTYH KO cells
Summary of the method: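 Lentiviral MUTYH cDNA NNN codon-scan libraries were expressed in MUTYH knockout HEK-293 cells with 10 pg/ml doxycycline, and the cells received an 8OG:A GFP repair reporter together with mCherry. At 72 h, viable mCherry+ cells went into GFP+ (repair) or GFP− bins, three replicates per tile, before tile amplicons were sequenced. A repair function score was then built from per-tile Rosace fitness scores, anchored on the synonymous and nonsense distributions. Synonymous medians sat at 0 and nonsense at -1, and variants under 300 counts per million at the start were left out.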
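Also: cells sorted at 72 h after reporter transfection.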

Variant	8OG:A repair function score
MRKPRAAVGSGHRKQAASQEGRQKHAKNNSQAKPSACDGLARQPEEVVLQASVSSYHLFRDVAEVTAFRGSLLSWYDQEKRDLPWRRRAEDEMDLDRRAYAVWVSEVMLQQTQVATVINYYTGWMQKWPTLQDLASASLEEVNQLWAGLGYYSRGRRLQEGARKVVEELGGHMPRTAETLQQLLPGVGRYTAGAIASIAFGQATGVVDGNVADVLCRVRAIGADPSSTLVSQQLWGLAQQLVDPARPGDFNQAAMELGATVCTPQRPLCSQCPVESLCRARQRVEQEQLLASGSLSGSPDVEECAPNTGQCHLCLPPSEPWDQTLGVVNFPRKASRKPPREESSATCVLEQPGALGAQILLVQRPNSGLLAGLWEFPSVTWEPSEQLQRKALLQELQRWAGPLPATHLRHLGEVVHTFSHIKLTYQVYGLALEGQTPVTTVPPGARWLTQEEFHTAAVSTAMKKVFRVYQGQQPGTCMGSKRSQVSSPCSRKKPRMGQQVLDNFFRSHISTDAHSLNSAAQ [R213D]	-1.01
MRKPRAAVGSGHRKQAASQEGRQKHAKNNSQAKPSACDGLARQPEEVVLQASVSSYHLFRDVAEVTAFRGSLLSWYDQEKRDLPWRRRAEDEMDLDRRAYAVWVSEVMLQQTQVATVINYYTGWMQKWPTLQDLASASLEEVNQLWAGLGYYSRGRRLQEGARKVVEELGGHMPRTAETLQQLLPGVGRYTAGAIASIAFGQATGVVDGNVACVLCRVRAIGADPSSTLVSQQLWGLAQQLVDPARPGDFNQAAMELGATVCTPQRPLCSQCPVESLCRARQRVEQEQLLASGSLSGSPDVEECAPNTGQCHLCLPPSEPWDQTLGVVNFPRKASRKPPREESSATCVLEQPGALGAQILLVQRPNSGLLAGLWEFPSVTWEPSEQLQRKALLQELQRWAGPLPATHLRHLGEVVHTFSHIKLTYQVYGLALEGQTPVTTVPPGARWLTQEEFHTAAVSTAMKKVFRVYQGQQPGTCMGSKRSQVSSPCSRKKPRMGQQVLDNFFRSHISTDAHSLNSAAQ [R213C]	-1.03
MRKPRAAVGSGHRKQAASQEGRQKHAKNNSQAKPSACDGLARQPEEVVLQASVSSYHLFRDVAEVTAFRGSLLSWYDQEKRDLPWRRRAEDEMDLDRRAYAVWVSEVMLQQTQVATVINYYTGWMQKWPTLQDLASASLEEVNQLWAGLGYYSRGRRLQEGARKVVEELGGHMPRTAETLQQLLPGVGRYTAGAIASIAFGQATGVVDGNVAHVLCRVRAIGADPSSTLVSQQLWGLAQQLVDPARPGDFNQAAMELGATVCTPQRPLCSQCPVESLCRARQRVEQEQLLASGSLSGSPDVEECAPNTGQCHLCLPPSEPWDQTLGVVNFPRKASRKPPREESSATCVLEQPGALGAQILLVQRPNSGLLAGLWEFPSVTWEPSEQLQRKALLQELQRWAGPLPATHLRHLGEVVHTFSHIKLTYQVYGLALEGQTPVTTVPPGARWLTQEEFHTAAVSTAMKKVFRVYQGQQPGTCMGSKRSQVSSPCSRKKPRMGQQVLDNFFRSHISTDAHSLNSAAQ [R213H]	-1.03
MRKPRAAVGSGHRKQAASQEGRQKHAKNNSQAKPSACDGLARQPEEVVLQASVSSYHLFRDVAEVTAFRGSLLSWYDQEKRDLPWRRRAEDEMDLDRRAYAVWVSEVMLQQTQVATVINYYTGWMQKWPTLQDLASASLEEVNQLWAGLGYYSRGRRLQEGARKVVEELGGHMPRTAETLQQLLPGVGRYTAGAIASIAFGQATGVVDGNVWRVLCRVRAIGADPSSTLVSQQLWGLAQQLVDPARPGDFNQAAMELGATVCTPQRPLCSQCPVESLCRARQRVEQEQLLASGSLSGSPDVEECAPNTGQCHLCLPPSEPWDQTLGVVNFPRKASRKPPREESSATCVLEQPGALGAQILLVQRPNSGLLAGLWEFPSVTWEPSEQLQRKALLQELQRWAGPLPATHLRHLGEVVHTFSHIKLTYQVYGLALEGQTPVTTVPPGARWLTQEEFHTAAVSTAMKKVFRVYQGQQPGTCMGSKRSQVSSPCSRKKPRMGQQVLDNFFRSHISTDAHSLNSAAQ [A212W]	-0.596
MRKPRAAVGSGHRKQAASQEGRQKHAKNNSQAKPSACDGLARQPEEVVLQASVSSYHLFRDVAEVTAFRGSLLSWYDQEKRDLPWRRRAEDEMDLDRRAYAVWVSEVMLQQTQVATVINYYTGWMQKWPTLQDLASASLEEVNQLWAGLGYYSRGRRLQEGARKVVEELGGHMPRTAETLQQLLPGVGRYTAGAIASIAFGQATGVVDGNVVRVLCRVRAIGADPSSTLVSQQLWGLAQQLVDPARPGDFNQAAMELGATVCTPQRPLCSQCPVESLCRARQRVEQEQLLASGSLSGSPDVEECAPNTGQCHLCLPPSEPWDQTLGVVNFPRKASRKPPREESSATCVLEQPGALGAQILLVQRPNSGLLAGLWEFPSVTWEPSEQLQRKALLQELQRWAGPLPATHLRHLGEVVHTFSHIKLTYQVYGLALEGQTPVTTVPPGARWLTQEEFHTAAVSTAMKKVFRVYQGQQPGTCMGSKRSQVSSPCSRKKPRMGQQVLDNFFRSHISTDAHSLNSAAQ [A212V]	-0.0975
MRKPRAAVGSGHRKQAASQEGRQKHAKNNSQAKPSACDGLARQPEEVVLQASVSSYHLFRDVAEVTAFRGSLLSWYDQEKRDLPWRRRAEDEMDLDRRAYAVWVSEVMLQQTQVATVINYYTGWMQKWPTLQDLASASLEEVNQLWAGLGYYSRGRRLQEGARKVVEELGGHMPRTAETLQQLLPGVGRYTAGAIASIAFGQATGVVDGNVYRVLCRVRAIGADPSSTLVSQQLWGLAQQLVDPARPGDFNQAAMELGATVCTPQRPLCSQCPVESLCRARQRVEQEQLLASGSLSGSPDVEECAPNTGQCHLCLPPSEPWDQTLGVVNFPRKASRKPPREESSATCVLEQPGALGAQILLVQRPNSGLLAGLWEFPSVTWEPSEQLQRKALLQELQRWAGPLPATHLRHLGEVVHTFSHIKLTYQVYGLALEGQTPVTTVPPGARWLTQEEFHTAAVSTAMKKVFRVYQGQQPGTCMGSKRSQVSSPCSRKKPRMGQQVLDNFFRSHISTDAHSLNSAAQ [A212Y]	-0.62
